Source: patent US20180264072A1

What was measured:
talin H1-H4 [1] = experiment: ITC; talin H1-H4 in the cell, IpaA VBS1 peptide as titrant
talin H1-H4 [2] = experiment: isothermal titration calorimetry
talin H1-H4 [3] = experiment: size exclusion chromatography; stoichiometry listed for the ternary complex
talin H1-H4 [4] = experiment: ITC; HVD1:A483 equimolar complex in the cell, talin H1-H4 as titrant
[5] = target: T1, vinculin in C2.7 mouse myoblast cells (mouse) (UniProt Q64727); experiment: cell-based or functional assay
T1 sequence: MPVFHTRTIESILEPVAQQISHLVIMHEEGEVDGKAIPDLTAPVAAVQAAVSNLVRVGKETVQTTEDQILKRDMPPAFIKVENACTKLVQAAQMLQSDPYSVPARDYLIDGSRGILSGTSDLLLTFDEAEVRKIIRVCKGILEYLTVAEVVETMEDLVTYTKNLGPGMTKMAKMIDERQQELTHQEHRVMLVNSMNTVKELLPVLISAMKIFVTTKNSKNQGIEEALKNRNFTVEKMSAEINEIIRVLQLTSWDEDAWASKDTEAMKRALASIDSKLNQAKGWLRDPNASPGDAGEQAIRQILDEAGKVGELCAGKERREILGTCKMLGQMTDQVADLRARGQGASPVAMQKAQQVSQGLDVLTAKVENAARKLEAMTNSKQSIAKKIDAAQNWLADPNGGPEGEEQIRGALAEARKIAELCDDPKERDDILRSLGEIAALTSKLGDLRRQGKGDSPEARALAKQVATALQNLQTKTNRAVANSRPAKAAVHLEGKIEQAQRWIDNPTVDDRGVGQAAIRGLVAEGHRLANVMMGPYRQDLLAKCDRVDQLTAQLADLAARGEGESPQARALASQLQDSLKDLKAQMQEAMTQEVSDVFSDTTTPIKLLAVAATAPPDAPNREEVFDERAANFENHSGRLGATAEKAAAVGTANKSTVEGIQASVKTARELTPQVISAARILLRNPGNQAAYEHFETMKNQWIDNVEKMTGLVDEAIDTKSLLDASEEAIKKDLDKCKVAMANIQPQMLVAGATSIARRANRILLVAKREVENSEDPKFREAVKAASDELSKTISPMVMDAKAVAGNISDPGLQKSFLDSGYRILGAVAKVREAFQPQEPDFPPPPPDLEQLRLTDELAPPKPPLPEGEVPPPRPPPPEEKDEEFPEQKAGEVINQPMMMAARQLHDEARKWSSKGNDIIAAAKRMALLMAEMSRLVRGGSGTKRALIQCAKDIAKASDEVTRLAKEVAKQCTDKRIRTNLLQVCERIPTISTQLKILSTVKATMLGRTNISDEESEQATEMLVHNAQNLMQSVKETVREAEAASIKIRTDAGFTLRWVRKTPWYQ

talin H1-H4 [6] = experiment: ITC; talin H1-H4 in the cell, IpaA VBS3 peptide as titrant
talin H1-H4 [7] = experiment: ITC; A524 in the cell, talin H1-H4 as titrant
talin H1-H4 [8] = experiment: size exclusion chromatography; stoichiometry listed for the complex
talin H1-H4 [9] = experiment: isothermal titration calorimetry, cell talin H1-H4, titrant talin H46 (VBS3)
talin in HeLa cells = talin in HeLa cells (UniProt Q9Y490); experiment: cell-based or functional assay
Chain of talin in HeLa cells (Q9Y490 whole entry): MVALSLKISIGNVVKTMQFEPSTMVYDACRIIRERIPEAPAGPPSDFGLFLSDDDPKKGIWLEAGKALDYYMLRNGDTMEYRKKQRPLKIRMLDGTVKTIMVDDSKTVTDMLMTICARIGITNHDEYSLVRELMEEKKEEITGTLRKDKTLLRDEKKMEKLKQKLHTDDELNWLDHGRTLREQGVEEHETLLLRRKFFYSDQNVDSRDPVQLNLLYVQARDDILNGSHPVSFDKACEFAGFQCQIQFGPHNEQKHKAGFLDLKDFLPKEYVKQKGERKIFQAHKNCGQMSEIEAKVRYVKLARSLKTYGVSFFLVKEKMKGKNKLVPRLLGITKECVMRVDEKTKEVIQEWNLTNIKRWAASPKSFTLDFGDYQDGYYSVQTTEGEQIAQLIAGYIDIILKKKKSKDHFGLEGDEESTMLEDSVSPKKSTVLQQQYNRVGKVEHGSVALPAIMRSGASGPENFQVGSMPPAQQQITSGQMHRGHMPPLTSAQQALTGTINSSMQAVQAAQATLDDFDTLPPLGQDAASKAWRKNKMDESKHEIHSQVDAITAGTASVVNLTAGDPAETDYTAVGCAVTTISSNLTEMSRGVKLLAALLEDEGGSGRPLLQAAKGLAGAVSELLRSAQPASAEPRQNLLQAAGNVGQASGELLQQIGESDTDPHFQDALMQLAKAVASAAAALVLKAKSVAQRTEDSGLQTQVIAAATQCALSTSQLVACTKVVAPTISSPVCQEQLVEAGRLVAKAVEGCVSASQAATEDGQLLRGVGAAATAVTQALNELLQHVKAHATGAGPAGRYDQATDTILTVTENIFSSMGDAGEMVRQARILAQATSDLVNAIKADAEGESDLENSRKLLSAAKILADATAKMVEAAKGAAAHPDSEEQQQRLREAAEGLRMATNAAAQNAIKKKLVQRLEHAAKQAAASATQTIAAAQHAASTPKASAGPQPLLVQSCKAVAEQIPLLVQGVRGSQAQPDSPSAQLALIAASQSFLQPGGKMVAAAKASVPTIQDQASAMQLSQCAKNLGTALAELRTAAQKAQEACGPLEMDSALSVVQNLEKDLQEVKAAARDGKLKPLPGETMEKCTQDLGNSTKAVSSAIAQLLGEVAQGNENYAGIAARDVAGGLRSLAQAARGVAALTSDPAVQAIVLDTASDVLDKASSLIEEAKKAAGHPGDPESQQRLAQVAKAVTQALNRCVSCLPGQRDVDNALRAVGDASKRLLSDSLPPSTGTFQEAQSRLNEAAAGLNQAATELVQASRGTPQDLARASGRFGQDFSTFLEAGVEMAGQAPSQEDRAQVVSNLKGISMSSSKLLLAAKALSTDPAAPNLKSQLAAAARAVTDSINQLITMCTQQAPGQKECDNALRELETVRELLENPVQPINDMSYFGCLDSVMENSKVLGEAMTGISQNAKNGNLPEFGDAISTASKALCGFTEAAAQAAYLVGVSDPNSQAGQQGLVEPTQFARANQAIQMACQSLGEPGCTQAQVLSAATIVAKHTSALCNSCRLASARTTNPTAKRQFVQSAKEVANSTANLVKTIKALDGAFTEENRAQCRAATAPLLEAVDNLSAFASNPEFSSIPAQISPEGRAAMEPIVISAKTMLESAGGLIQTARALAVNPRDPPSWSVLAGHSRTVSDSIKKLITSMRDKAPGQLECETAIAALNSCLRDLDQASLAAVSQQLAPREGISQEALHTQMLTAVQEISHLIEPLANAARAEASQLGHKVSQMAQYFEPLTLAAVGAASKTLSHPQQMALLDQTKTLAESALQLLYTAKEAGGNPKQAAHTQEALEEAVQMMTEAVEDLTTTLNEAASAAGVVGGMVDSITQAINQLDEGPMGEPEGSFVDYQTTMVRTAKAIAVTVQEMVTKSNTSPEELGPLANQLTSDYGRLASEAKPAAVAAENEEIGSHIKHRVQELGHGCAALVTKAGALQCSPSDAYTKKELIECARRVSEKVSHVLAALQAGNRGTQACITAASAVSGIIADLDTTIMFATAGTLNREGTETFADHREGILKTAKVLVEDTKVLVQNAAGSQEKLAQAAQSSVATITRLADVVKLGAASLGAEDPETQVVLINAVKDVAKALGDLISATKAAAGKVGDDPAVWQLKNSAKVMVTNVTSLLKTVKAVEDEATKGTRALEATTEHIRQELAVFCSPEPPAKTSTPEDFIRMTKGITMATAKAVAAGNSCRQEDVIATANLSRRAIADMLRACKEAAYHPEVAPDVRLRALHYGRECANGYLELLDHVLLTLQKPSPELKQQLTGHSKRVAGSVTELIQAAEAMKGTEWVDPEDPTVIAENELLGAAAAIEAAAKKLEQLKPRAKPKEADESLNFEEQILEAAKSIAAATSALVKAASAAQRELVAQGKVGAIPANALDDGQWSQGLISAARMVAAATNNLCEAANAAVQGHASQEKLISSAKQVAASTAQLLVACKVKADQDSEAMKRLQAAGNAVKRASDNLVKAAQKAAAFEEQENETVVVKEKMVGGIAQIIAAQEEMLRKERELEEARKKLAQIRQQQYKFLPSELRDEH

talin H1-H4 [10] = experiment: ITC; A483 in the cell, talin H1-H4 as titrant

Chain of talin H1-H4 (P26039 482-636): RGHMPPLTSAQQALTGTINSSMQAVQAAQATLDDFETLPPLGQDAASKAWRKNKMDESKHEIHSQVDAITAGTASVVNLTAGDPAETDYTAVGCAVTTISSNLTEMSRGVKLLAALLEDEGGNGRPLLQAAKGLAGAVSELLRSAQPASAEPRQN
Chain of IpaA 524-633 (A524) (P18010 524-633 limits assumed): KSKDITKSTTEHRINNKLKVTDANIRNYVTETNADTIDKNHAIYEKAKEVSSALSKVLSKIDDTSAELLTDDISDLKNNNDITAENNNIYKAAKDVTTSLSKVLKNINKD
Chain of IpaA 483-633 (A483) (P18010 483-633 limits assumed): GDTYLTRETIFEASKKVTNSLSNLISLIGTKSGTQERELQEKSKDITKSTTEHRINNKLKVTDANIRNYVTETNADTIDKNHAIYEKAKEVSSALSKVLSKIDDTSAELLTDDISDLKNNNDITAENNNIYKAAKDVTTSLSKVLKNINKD
Chain of GFP-A483 (P18010 483-633): as the sequence (P18010 483-633 limits assumed) above
Chain of A483:HVD1 complex (P18010 483-633 limits assumed): as above
Chain of IpaA full length (P18010 whole entry): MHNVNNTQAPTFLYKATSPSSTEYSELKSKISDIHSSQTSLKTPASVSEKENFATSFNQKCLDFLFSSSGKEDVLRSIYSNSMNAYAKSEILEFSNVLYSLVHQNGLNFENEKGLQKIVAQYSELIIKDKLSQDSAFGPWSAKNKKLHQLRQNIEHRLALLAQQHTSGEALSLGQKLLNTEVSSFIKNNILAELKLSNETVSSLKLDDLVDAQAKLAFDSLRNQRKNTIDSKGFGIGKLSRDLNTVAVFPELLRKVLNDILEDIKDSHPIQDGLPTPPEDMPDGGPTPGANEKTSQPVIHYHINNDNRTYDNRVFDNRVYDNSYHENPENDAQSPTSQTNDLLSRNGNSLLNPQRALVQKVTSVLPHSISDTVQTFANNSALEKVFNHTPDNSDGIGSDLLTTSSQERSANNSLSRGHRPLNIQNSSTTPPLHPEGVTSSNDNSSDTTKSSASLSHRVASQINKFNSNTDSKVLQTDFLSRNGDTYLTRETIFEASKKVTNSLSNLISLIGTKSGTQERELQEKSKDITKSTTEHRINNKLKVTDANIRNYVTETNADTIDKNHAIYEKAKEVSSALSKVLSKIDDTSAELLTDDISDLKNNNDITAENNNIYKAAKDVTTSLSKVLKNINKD

For IpaA VBS1 peptide, the -TΔS (talin H1-H4 [1]) was -10.3 kJ/mol, the Kd (talin H1-H4 [1]) was 15.2 µM and the N (stoichiometry) (talin H1-H4 [1]) was 1.22. The ΔG (talin H1-H4 [1]) was -27.5 kJ/mol and the ΔH (talin H1-H4 [1]) was -17.2 kJ/mol.

“A483:HVD1 complex (from UniProt P18010 483-633; P18206 1-258)” gave a -TΔS (talin H1-H4 [2]) of 5.72 kJ/mol, a stoichiometry (talin H1-H4 [3]) of 1 and a -TΔS (talin H1-H4 [4]) of -5.73 kJ/mol. It also gave a N (stoichiometry) (talin H1-H4 [4]) of 0.459, a ΔG (talin H1-H4 [4]) of -32.1 kJ/mol and a ΔH (talin H1-H4 [4]) of -37.9 kJ/mol.

For GFP-A483 (from UniProt P18010 483-633), the adhesion stress σ=F/A at detachment, parallel plates [5] was 6.5 nN/µm^2, the median cell surface [5] was 1850 µm^2 and the median time between two divisions (second group of GFP-A483 cells) [5] was 17.1 h. The median velocity of migration [5] was 30.7 µm/hour and the rate of single-cell traction force generation (dF/dt), parallel plates [5] was 0.4.

IpaA VBS3/TBS peptide showed a -TΔS (talin H1-H4 [2]) of -6.4 kJ/mol, a Kd (talin H1-H4 [2]) of 0.15 µM and a ΔG (talin H1-H4 [2]) of -37.9 kJ/mol. For the same substance, the -TΔS (talin H1-H4 [6]) was -11.8 kJ/mol, the Kd (talin H1-H4 [6]) was 0.175 µM and the N (stoichiometry) (talin H1-H4 [6]) was 0.893. The ΔG (talin H1-H4 [6]) was -38.6 kJ/mol and the ΔH (talin H1-H4 [6]) was -26.7 kJ/mol.

Work on “IpaA 524-633 (A524) (from UniProt P18010 524-633)” yielded a -TΔS (talin H1-H4 [7]) of -14.5 kJ/mol, a Kd (talin H1-H4 [7]) of 2.03 µM and a N (stoichiometry) (talin H1-H4 [7]) of 1.5. For the same substance, the ΔG (talin H1-H4 [7]) was -31.2 kJ/mol, the ΔH (talin H1-H4 [7]) was -16.6 kJ/mol and the stoichiometry (molar ratio of the complex (1:1)) (talin H1-H4 [8]) was 1.

In the case of “talin H46 (talin VBS3) α-helix (peptide)”, the -TΔS (talin H1-H4 [2]) is reported as 30.1 kJ/mol, the Kd (talin H1-H4 [2]) is reported as 0.06 µM and the ΔH (talin H1-H4 [2]) is reported as -71 kJ/mol. For the same substance, the N (talin H1-H4 [9]) was 0.92 and the ΔG (talin H1-H4 [9]) was -41.7 kJ/mol.

“IpaA full length (from UniProt P18010 1-633)” gave a percentage of foci forming talin coat structures (talin in HeLa cells) of 52%.

“IpaA 483-633 (A483) (from UniProt P18010 483-633)” showed a stoichiometry (molar ratio of the complex (1:1)) (talin H1-H4 [8]) of 1, a -TΔS (talin H1-H4 [10]) of -15.9 kJ/mol and a Kd (talin H1-H4 [10]) of 0.0249 µM. The N (stoichiometry) (talin H1-H4 [10]) was 1, the ΔG (talin H1-H4 [10]) was -41.9 kJ/mol and the ΔH (talin H1-H4 [10]) was -26.1 kJ/mol.
